Laboratory results: PMC3025574 (Nucleic Acids Research, 2010)

Biological target: Escherichia coli DNA gyrase B subunit (GyrB) (Escherichia coli, UniProt P0AES6 1-804)
Assay: SAXS

binding result: binds
B1: GyrA-ΔCTD (mutant GyrA subunit lacking the CTDs, residues 1–523) (domain or fragment)
chain: MSDLAREITPVNIEEELKSSYLDYAMSVIVGRALPDVRDGLKPVHRRVLYAMNVLGNDWNKAYKKSARVVGDVIGKYHPHGDSAVYDTIVRMAQPFSLRYMLVDGQGNFGSIDGDSAAAMRYTEIRLAKIAHELMADLEKETVDFVDNYDGTEKIPDVMPTKIPNLLVNGSSGIAVGMATNIPPHNLTEVINGCLAYIDDEDISIEGLMEHIPGPDFPTAAIINGRRGIEEAYRTGRGKVYIRARAEVEVDAKTGRETIIVHEIPYQVNKARLIEKIAELVKEKRVEGISALRDESDKDGMRIVIEVKRDAVGEVVLNNLYSQTQLQVSFGINMVALHHGQPKIMNLKDIIAAFVRHRREVVTRRTIFELRKARDRAHILEALAVALANIDPIIELIRHAPTPAEAKTALVANPWQLGNVAAMLERAGDDAARPEWLEPEFGVRDGLYYLTEQQAQAILDLRLQKLTGLEHEKLLDEYKELLDQIAELLRILGSADRLMEVIREELELVREQFGDKRRTEITA
